Substrate in data set [1]: NC(=O)c1ccc[n+]([C@@H]2O[C@H](COP(=O)(O)OP(=O)(O)OC[C@H]3O[C@@H](n4cnc5c(N)ncnc54)[C@H](O)[C@@H]3O)[C@@H](O)[C@H]2O)c1
The data set can be described thus: purified protein. The following applies: 10 mM malate, MnCl2, […] KCl, pH 7.0, 42°C, varied: cofactor. The format is biochemical, Haloferax volcanii.

Substrate in data set [2]: NC(=O)c1ccc[n+]([C@@H]2O[C@H](COP(=O)(O)OP(=O)(O)OC[C@H]3O[C@@H](n4cnc5c(N)ncnc54)[C@H](OP(=O)(O)O)[C@@H]3O)[C@@H](O)[C@H]2O)c1
Description: purified protein. Type of data set: biochemical, Haloferax volcanii. To be noted: 10 mM malate, MnCl2, […] KCl, pH 7.0, 42°C, varied: cofactor.

Substrate in data set [3]: CC(=O)O
Description: purified protein. The following applies: acetate activation, ATP, CoA, MgCl2, 1 M KCl, pH 7.0, 42°C, pH 7.0.

Substrate in data set [4]: CC(=O)SCCNC(=O)CCNC(=O)[C@H](O)C(C)(C)COP(=O)(O)OP(=O)(O)OC[C@H]1O[C@@H](n2cnc3c(N)ncnc32)[C@H](O)[C@@H]1OP(=O)(O)O
Description: purified protein. The following applies: acetate formation (reverse), AMP, PPi, MgCl2, 1 M KCl, pH 7.0, 42°C. The format is biochemical, Haloferax volcanii.

Substrate in data set [5]: CC(C)(COP(=O)(O)OP(=O)(O)OC[C@H]1O[C@@H](n2cnc3c(N)ncnc32)[C@H](O)[C@@H]1OP(=O)(O)O)[C@@H](O)C(=O)NCCC(=O)NCCS
Description: purified protein. Type of data set: biochemical, Haloferax volcanii. To be noted: acetate activation, ATP, CoA, MgCl2, 1 M KCl, pH 7.0, 42°C.

Substrate in data set [6]: Nc1ncnc2c1ncn2[C@@H]1O[C@H](COP(=O)(O)O)[C@@H](O)[C@H]1O
The data set can be described thus: purified protein. The format is biochemical, Haloferax volcanii. To be noted: acetate formation (reverse), acetyl-CoA, PPi, MgCl2, 1 M KCl, pH 7.0, 42°C.

Substrate in data set [7]: Nc1ncnc2c1ncn2[C@@H]1O[C@H](COP(=O)(O)OP(=O)(O)OP(=O)(O)O)[C@@H](O)[C@H]1O
Description: purified protein. To be noted: acetate activation, ATP, CoA, MgCl2, 1 M KCl, pH 7.0, 42°C. The format is biochemical, Haloferax volcanii.

Substrate in data set [8]: CC(=O)C(=O)O
Description: discontinuous PEP formation assay. The format is biochemical, Haloferax volcanii. The following applies: ATP, MgCl2, DTE, 2 M KCl, pH 8.0, 42°C.

Substrate in data set [9]: Nc1ncnc2c1ncn2[C@@H]1O[C@H](COP(=O)(O)OP(=O)(O)OP(=O)(O)O)[C@@H](O)[C@H]1O
Description: discontinuous PEP formation assay. Type of data set: biochemical, Haloferax volcanii. To be noted: pyruvate, MgCl2, DTE, 2 M KCl, pH 8.0, 42°C.

In general, Km refers to the concentration of substrate that gives half-maximal velocity. The term Vmax denotes the top rate of the reaction or transport when substrate is in excess.

B1: Mae2 (Haloferax volcanii DS2) (protein)
chain: MTLGDDARDYHRRPPAGKVEIATTKPTNTQRDLSLAYSPGVAAPCRDIAEDENAAYEYTAKGNLVGVVSNGSAVLGLGDIGAQASKPVMEGKGVLFKRFADIDVFDVEFDHDDPQAFVESVAAMEPTFGGINLEDIRAPECFEIEESLRERMDIPVFHDDQHGTAIISGAALLNAADIADKELSSLNVTFSGAGAAATATARFYVSLGIPHENITLCDIDGVLSESRAEAGELDEYAEPFARGVDDGDLEDAMEGADVLVGLSVGGIVSQETVRSMADDPIIFAMANPEPEIAYEDAKEARDDTVIMATGRSDYPNQVNNVLGFPFIFRGALDVRATEINEEMKRAAAEALANLARQDVPDAVVKAYGDGPLQFGPDYLIPKPLDQRVLYEVTPAVAEAAMKSGAARRERDLDDYREELEARLGKSREMMRVVLNKAASNPKRVVLAEGEDEKMIRAASQLVEEGIAEPILVGRTKEILRTAEDLGLDFDPTIADPESGEWNHYVDHLYERRQRKGLTRTEAAELVRGDSNYFASVMVEVGDADAMLTGLTHHYPSALRPPLQIIGTADDADYAAGVYMLTFRNRVIFCADATVNLDPDENVLAEVTKHTAELARRFNVEPRAALLSYSDFGSVTNEGTRKPRNAVEQLHADPDVDFPVDGEMQADTALVEEMLTDTYDFAELDDPANVLVFPNLEAGNIGYKLLQRLGGAEAIGPMLVGMDKPVHVLQRGDEVKDIVNLAGVAVVDAQSE
notes: full length with C-terminal PTA domain, Ni-NTA purified, homologous expression in H. volcanii; 530 kDa, subunit 81 kDa
In the case of B1, the Km in the data set “purified protein [1]” amounted to 150 µM; in the data set “purified protein [2]”, 100 µM.

B2: ACS7 (Haloferax volcanii DS2) (protein)
chain: MAQGDAELEARLAEQDEFEPTEEFVAQANVSDAGIYDEFEENWPDCWERAADLLDWDADYDEVLDDSNPPFYEWFTGGELNACYNCVDRHVENGDKNRVAIKWEGEHGETRTYTYQDLYREVNEFAAALRDLGVEEDDVVTLYMPMVPELPIAMLACARIGAPHNVVFAGFSAEALATRMNAADSRFLVTCDGYYRRGDPLDHLDKTNEGLDSVDHGVDATVVVDRLGDDGFDHDLKGNQHDWDDLLEAQSGERVAPVERDAEDMLFLMYTSGTTGQPKGVKHTTGGYLSYATWTSHAVLDIETEDTYWCSADIGWITGHSYIVYGPLALGSTTVMYEGTPDFPNRDRMWELVEKYAVDIFYTAPTAIRAFMKWGSKYPESRDLSSLRLLGTVGEPINPRAWKWYYEHIGNENCPVVDTWWQTETGGMMITTLPGVKNMKPGSAGPPLPGIDAQIVDTDGDEVEPGRAGYLTVNKPWPGMLRTLYDNDERYISEYWAEYSDTDSDDPDDWVYFPEDGAKVDEDGYITVLGRVDDVINVSGHRLGTMEIESAIVGVEGVAEAAVVGGNHEVKGEAVYAYVITEDGYEEGEDLRARIVEGVEDAIGPIARPEQVVFTPELPKTRSGKIMRRLLEDVANGAELGNTSTLRNPEIVGEIEAKVRAQSD
notes: full length, Ni-NTA purified (pTA963), homologous expression in H. volcanii H1209
Regarding B2, the Km in “purified protein [3]” was determined as 840 µM; in “purified protein [4]” it was 150 µM; in “purified protein [5]” it was 230 µM; in “purified protein [6]” it was 90 µM; in “purified protein [7]” it was 590 µM. Besides, the Vmax in “purified protein [3]” is 26.1 µmol/min/mg; in “purified protein [4]”, 6.2 µmol/min/mg.

B3: PPS (Haloferax volcanii DS2) (protein)
chain: MAVVWLDDVRADDLDLVGGKGASLGELTGAGLPVPPGFVVTASTYRAFIEDAGIDDELFAAVEVDHEDSEALQAAHETAHDLIMETPMPDDVREEILDAYRSVGEGDAFVAVRSSATAEDLPDASFAGQQETFLNVTEEDLLDRVKECWASLFSERAIYYRNRKGFPHDKVDIAVVVQQMVDAEKSGVMFTRHPSTGKKEIIIEAAWGLGEAVVSGTVSPDNYVVSRETGEVETATIADKKTMCVRDEESGETVMRDVPNGRRHERVLTDDEVSRLLELGELVEDHYEKPQDVEWAVYDGEVYMLQSRPITTIAEGDDGEETESEGDSSGSSRATATGDDVLIRGLGASPGIASGRARIVTKLDHLDQVAEGDIIVTEMTMPDMVPAMKRAAGIVTDEGGMTSHAAIVSRELGVPAVVGTGDGTKTLEDGEVVTIDGDKGTVREGEEPEEKQRQPVEEARPKTPVKPMTATEVKVNVSIPEAAERAAATGADGVGLLRIEHMVLTLGKTPGRFIEQNGERAYVDEIVSGVREAAEEFYPRPVRVRTLDAPTDEFRQLEGGENEPREHNPMLGYRGIRRGLDNPSVFRLELQAFRRLFDMGYDNLEVMFPLVNDAEDVLRAKEHMREAGIDPEKREWGVMIETPAAALCIEELADAGIDFASFGTNDLTQYTLAVDRNNEHVADIYDELHPAVLKLIGDTIETCREVGVKTSICGQAGSKPKMVQFLVDKGVSSISANIDAVRDVQHEVKRVEQRLLLDSVR
notes: full length, Ni-NTA purified, homologous expression in H. volcanii
Turning to B3, the Michaelis-Menten constant (Km) in [8] turned out to be 270 µM; in [9] it was 360 µM.
